From publication PMC5101480 (Scientific Reports, 2016)
Entries after “also recorded” stand apart in the source; their conditions may differ.

Assays:
[1] = 1H-15N heteronuclear NOE of Rpn13_260-407, free and SGTA_TPR-bound; parameters: species or system human; conditions: 350 μM 15N-labelled Rpn13_260-407, 700 MHz, four second saturation transfer or control period
Protocol: To study the dynamic properties of free and SGTA_TPR-bound Rpn13_260-407, ^1H- ^15N heteronuclear NOE experiments were carried out with a four second saturation transfer or control period. […] The average heteronuclear NOE enhancement value for Rpn13 residues Asp 403 to Asp 407 in the free and SGTA_TPR-bound state were −0.71 and 0.48, respectively, thus indicating the transition of the Rpn13 extreme C-terminal pentapeptide region to a more ordered state upon binding to SGTA_TPR (Fig. 2C).
where Δδ1H and Δδ15N are the chemical shift differences for the same amide in its free and bound state (δfree−δbound) and for proton and nitrogen chemical shift values respectively. CSP results were mapped on to the SGTA_TPR crystal structure (PDB code 2VYI) using PyMOL. ^1H-^15N heteronuclear NOE experiments were performed with a four second saturation transfer or control period at 700 MHz. Sample concentrations of ^15N-labelled Rpn13_260-407 were maintained at 350 μM both in its free and bound state with unlabelled SGTA_TPR at a 1:1 molar ratio.

[2] = system: TPR domain of SGTA (SGTA_TPR, residues 84–211); assay: Solution NMR CSP titration of unlabelled SGTA_TPR into 15N-labelled Rpn13_260-407; format: binding, human; conditions: 15N-labelled Rpn13_260-407, SGTA_TPR to 1:1; pH 6.0, 25 °C
Protocol: In order to understand molecular details underlying the interaction between SGTA and Rpn13, solution NMR studies were carried out on excised domains of SGTA and Rpn13 guided by earlier mapping studies. Reciprocal chemical shift perturbation (CSP) experiments were performed by titrating unlabelled Rpn13 C-terminal domain (residues 260–407; hereafter described as Rpn13_260-407) into ^15N-labelled TPR domain of SGTA (residues 84–211; hereafter referred to as SGTA_TPR) and vice versa. Assignments of backbone amide resonances were obtained from the BMRB (accession numbers 5709 and 17286, for SGTA_TPR and Rpn13_260-407, respectively). […]
Protein samples at concentrations between 300 μM and 1 mM were prepared in 10% D2O (Sigma Aldrich), 10 mM potassium phosphate pH 6.0, 100 mM NaCl and 250 μM TCEP buffer (with 10 μM DSS for proton chemical shift referencing). […] All NMR spectra were processed with TopSpin and analysed with CcpNMR Analysis[35]. Proteins used for NMR titrations were dialysed overnight against the same buffer (10 mM potassium phosphate pH 6.0, 100 mM NaCl and 250 μM TCEP) and mixed in different molar ratios, with the concentration of the labelled protein maintained constant. ^1H-^15N HSQC experiments were recorded for each titration point at 25 °C. Chemical shift perturbation (CSP) values were calculated for each amide signal using the following formula: […]

[3] = molecular target: T1, TPR domain of SGTA (SGTA_TPR) (Homo sapiens, UniProt O43765); assay: Size exclusion chromatography (SEC) complex formation with SGTA_TPR; format: binding; conditions: mixed in 1:1 molar ratio
T1 construct: thioredoxin A (TxA) fusion (N, cleaved yes); hexahistidine tag (N, cleaved yes); made in house; host or cells: E. coli BL21(DE3) Rosetta
Protocol: In order to understand molecular details underlying the interaction between SGTA and Rpn13, solution NMR studies were carried out on excised domains of SGTA and Rpn13 guided by earlier mapping studies. Reciprocal chemical shift perturbation (CSP) experiments were performed by titrating unlabelled Rpn13 C-terminal domain (residues 260–407; hereafter described as Rpn13_260-407) into ^15N-labelled TPR domain of SGTA (residues 84–211; hereafter referred to as SGTA_TPR) and vice versa. Assignments of backbone amide resonances were obtained from the BMRB (accession numbers 5709 and 17286, for SGTA_TPR and Rpn13_260-407, respectively). The ^1H-^15N HSQC spectra of both SGTA_TPR and Rpn13_260-407 show binding in a fast exchange regimen (Figs 1A and 2A). […] Binding was further confirmed by size-exclusion chromatography (SEC) and isothermal titration calorimetry (ITC) (Fig. 1C,D). […]
SGTA_TPR and Rpn13 plasmids were transformed into E. coli BL21(DE3) Rosetta cells, with protein expression induced by adding 0.3–0.5 mM isopropyl-β-D-thiogalactopyranoside (IPTG) to bacterial cultures in LB media at OD600 ≈ 0.8, followed by overnight incubation at 18 °C. […] Proteins were concentrated using Vivaspin concentrators (Sartorius Stedin) and sample purity and homogeneity was assessed by SDS-PAGE, mass spectrometry and NMR. […]

T1 sequence (O43765 84-211): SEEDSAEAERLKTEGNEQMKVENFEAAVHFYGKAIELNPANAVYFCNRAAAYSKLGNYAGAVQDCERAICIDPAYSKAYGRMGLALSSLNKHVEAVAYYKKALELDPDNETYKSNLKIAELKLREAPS

B1: Rpn13_260-407: Rpn13 C-terminal domain (residues 260–407), human, expressed in E. coli (protein)
chain: QPIQLSDLQSILATMNVPAGPAGGQQVDLASVLTPEIMAPILANADVQERLLPYLPSGESLPQTADEIQNTLTSPQFQQALGMFSAALASGQLGPLMCQFGLPAEAVEAANKGDVEAFAKAMQNNAKPEQKEGDTKDKKDEEEDMSLD
modifications: left off: thioredoxin A (TxA), N-terminal, cleaved | His6, N-terminal, cleaved
notes: Rpn13 C-terminal domain (residues 260–407), human, expressed in E. coli
- average heteronuclear NOE enhancement value, residues Asp 403 to Asp 407 ([1]; SGTA_TPR-bound state, 1:1 molar ratio): 0.48
- average heteronuclear NOE enhancement value, residues Asp 403 to Asp 407 ([1]; free state): −0.71
- CSP of Rpn13_260-407 backbone amides on binding SGTA_TPR [2]: only extreme C-terminal residues Met 404, Ser 405, Leu 406 and Asp 407 are perturbed
- SEC complex formation with SGTA_TPR [3]: clearly indicative of a stable complex; also recorded: formation of a stable complex
